Each block holds one binder with its values, some of them ahead of it. Bridges are numbered along the chain shown (N, C = ends). Where no end group is shown, it is not given here.
Columns and labels:
[1] = target: BMP-7 receptor of ROS cell plasma membrane fraction (ROS cell type II BMP receptor) (rat); assay: cell-based or functional assay
[2] = target: BMP-7 receptor of ROS cell plasma membrane fraction (ROS cell type II BMP receptor) (rat); assay: radioligand receptor assay, 125I-BMP-7 on ROS cell plasma membranes
[3] = target: BMP-7 receptor of ROS cell plasma membrane fraction (ROS cell type II BMP receptor) (rat); assay: radioligand receptor assay, displacement of 125I-BMP-7 from ROS cell plasma membranes

50% inhibition of cellular responsiveness to BMP-7 (ROS cell alkaline phosphatase assay) [1]: 5 µM
peptide concentration that potentiated the binding of 125I-labeled BMP-7 [2]: 8 µM
Binder: CCFINPETVCC (cyclized (disulfide bond between cysteines)) [H-2C]

50% inhibition of the cell responsive to BMP-7 (ROS cell alkaline phosphatase assay) [1]: 10 µM
concentration required to inhibit the binding of 125I-labeled BMP-7 [3]: 179 µM
Binder: CFRDLGWQDWIIAPC (disulfide 1-15 (inferred)) [F1-2]

potentiation of BMP-7 induced cell responsiveness at 0.6-60 µM peptide (ROS cell alkaline phosphatase assay) [1]: 20%
IC50 [3]: 1000 nM
Binder: CYFDDSSNVIC (disulfide 1-11 (inferred)) [F2-2]
